Where no end group is shown, it is not given here. [ ]: non-standard residue; d: D form. Nle = CCCC[C@H](N)C(=O)O
Target: epithelial Na+ channel (ENaC) on human bronchial epithelial cultures (human, UniProt P37088 1-669; P51168 1-640; P51170 1-649)
Assay: cell-based or functional assay

Chain of epithelial Na+ channel (ENaC) on human bronchial epithelial cultures (P37088 whole entry, chain 1 of 3): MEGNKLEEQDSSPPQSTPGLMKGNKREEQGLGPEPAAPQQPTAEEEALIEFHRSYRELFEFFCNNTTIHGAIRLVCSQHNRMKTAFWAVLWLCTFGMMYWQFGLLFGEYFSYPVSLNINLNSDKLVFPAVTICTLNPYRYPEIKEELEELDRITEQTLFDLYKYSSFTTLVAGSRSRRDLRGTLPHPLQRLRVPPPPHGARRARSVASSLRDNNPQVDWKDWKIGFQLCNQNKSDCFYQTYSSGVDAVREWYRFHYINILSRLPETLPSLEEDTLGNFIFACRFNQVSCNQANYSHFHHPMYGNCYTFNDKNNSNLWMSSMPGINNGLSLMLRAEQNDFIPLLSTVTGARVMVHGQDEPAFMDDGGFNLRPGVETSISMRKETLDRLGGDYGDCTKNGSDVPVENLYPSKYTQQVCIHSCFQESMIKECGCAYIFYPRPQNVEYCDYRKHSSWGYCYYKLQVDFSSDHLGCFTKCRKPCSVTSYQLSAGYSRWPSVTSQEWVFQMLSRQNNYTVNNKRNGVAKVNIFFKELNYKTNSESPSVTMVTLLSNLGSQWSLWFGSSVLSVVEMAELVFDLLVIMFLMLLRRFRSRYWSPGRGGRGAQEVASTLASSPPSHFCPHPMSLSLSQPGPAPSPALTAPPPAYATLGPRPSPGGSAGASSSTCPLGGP
Chain of epithelial Na+ channel (ENaC) on human bronchial epithelial cultures (P51168 whole entry, chain 2 of 3): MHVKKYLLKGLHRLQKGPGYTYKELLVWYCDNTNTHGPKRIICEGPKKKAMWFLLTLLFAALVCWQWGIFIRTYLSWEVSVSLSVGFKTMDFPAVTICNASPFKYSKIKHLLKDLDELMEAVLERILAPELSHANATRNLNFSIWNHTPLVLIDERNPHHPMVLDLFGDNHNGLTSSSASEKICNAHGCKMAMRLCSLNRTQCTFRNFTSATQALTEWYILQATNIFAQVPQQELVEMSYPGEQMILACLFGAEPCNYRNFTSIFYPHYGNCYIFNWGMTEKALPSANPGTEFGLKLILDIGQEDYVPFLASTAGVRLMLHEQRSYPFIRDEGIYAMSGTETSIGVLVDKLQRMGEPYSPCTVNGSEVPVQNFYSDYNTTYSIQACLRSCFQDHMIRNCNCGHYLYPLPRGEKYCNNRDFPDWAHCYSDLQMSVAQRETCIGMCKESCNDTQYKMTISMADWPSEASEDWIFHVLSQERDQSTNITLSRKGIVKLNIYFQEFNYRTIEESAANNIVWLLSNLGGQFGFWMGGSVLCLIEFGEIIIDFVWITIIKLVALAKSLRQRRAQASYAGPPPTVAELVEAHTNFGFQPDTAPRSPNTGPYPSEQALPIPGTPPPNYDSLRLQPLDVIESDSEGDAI
Chain of epithelial Na+ channel (ENaC) on human bronchial epithelial cultures (P51170 whole entry, chain 3 of 3): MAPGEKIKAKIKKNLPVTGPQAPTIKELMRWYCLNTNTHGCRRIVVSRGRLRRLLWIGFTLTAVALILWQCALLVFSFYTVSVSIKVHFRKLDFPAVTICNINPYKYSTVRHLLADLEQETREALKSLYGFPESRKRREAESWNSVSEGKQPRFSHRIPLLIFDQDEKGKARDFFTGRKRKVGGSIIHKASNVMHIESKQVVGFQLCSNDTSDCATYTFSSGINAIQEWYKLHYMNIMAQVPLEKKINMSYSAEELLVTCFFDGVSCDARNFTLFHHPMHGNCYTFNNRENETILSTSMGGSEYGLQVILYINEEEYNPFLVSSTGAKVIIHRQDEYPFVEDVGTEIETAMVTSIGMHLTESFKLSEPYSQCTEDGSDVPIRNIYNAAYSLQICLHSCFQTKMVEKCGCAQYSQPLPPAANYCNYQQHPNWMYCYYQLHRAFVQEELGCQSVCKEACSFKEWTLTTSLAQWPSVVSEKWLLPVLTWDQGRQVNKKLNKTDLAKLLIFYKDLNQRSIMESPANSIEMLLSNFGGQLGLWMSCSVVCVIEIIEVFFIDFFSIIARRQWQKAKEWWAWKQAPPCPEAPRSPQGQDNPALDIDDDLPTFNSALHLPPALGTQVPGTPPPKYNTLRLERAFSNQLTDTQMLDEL

[dA][dA]LP[Nle]PLDQT[dA][dA] [aaLPNlePLDQTaa (SEQ ID NO:5)]
IC50, dose response on airway cells (ASL height): 30 nM

From patent publication US20160102121A1 (UNIVERSITY OF NORTH CAROLINA AT CHAPEL HILL, published 2016)
